Measurements: paper PMC4692422

B1: Flag-tagged WT STAT5 (mouse STAT5a) [mouse] / DUSP4-PD (phosphatase-dead mutant DUSP4, [mouse] (parent)
chain 1: MAGWIQAQQLQGDALRQMQVLYGQHFPIEVRHYLAQWIESQPWDAIDLDNPQDRGQATQLLEGLVQELQKKAEHQVGEDGFLLKIKLGHYATQLQNTYDRCPMELVRCIRHILYNEQRLVREANNCSSPAGVLVDAMSQKHLQINQRFEELRLITQDTENELKKLQQTQEYFIIQYQESLRIQAQFAQLGQLNPQERMSRETALQQKQVSLETWLQREAQTLQQYRVELAEKHQKTLQLLRKQQTIILDDELIQWKRRQQLAGNGGPPEGSLDVLQSWCEKLAEIIWQNRQQIRRAEHLCQQLPIPGPVEEMLAEVNATITDIISALVTSTFIIEKQPPQVLKTQTKFAATVRLLVGGKLNVHMNPPQVKATIISEQQAKSLLKNENTRNECSGEILNNCCVMEYHQATGTLSAHFRNMSLKRIKRADRRGAESVTEEKFTVLFESQFSVGSNELVFQVKTLSLPVVVIVHGSQDHNATATVLWDNAFAEPGRVPFAVPDKVLWPQLCEALNMKFKAEVQSNRGLTKENLVFLAQKLFNISSNHLEDYNSMSVSWSQFNRENLPGWNYTFWQWFDGVMEVLKKHHKPHWNDGAILGFVNKQQAHDLLINKPDGTFLLRFSDSEIGGITIAWKFDSPDRNLWNLKPFTTRDFSIRSLADRLGDLNYLIYVFPDRPKDEVFAKYYTPVLAKAVDGYVKPQIKQVVPEFVNASTDAGASATYMDQAPSPVVCPQPHYNMYPPNPDPVLDQDGEFDLDESMDVARHVEELLRRPMDSLDARLSPPAGLFTSARSSLS
chain 2: MVTMEELREMDCSVLKRLMNRDENGGGGSAGGNGSGSHGALGLLSGGKCLLLDCRPFLAHSAGYIRGSVNVRCNTIVRRRAKGSVSLEQILPAEEEVRARLRSGLYSAVIVYDERSPRAESLREDSTVSLVVQALRRNAERTDICLLKGGYERFSSEYPEFCSKTKALAAIPPPVPPSTNESLDLGCSSCGTPLHDQGGPVEILPFLYLGSAYHAARRDMLDALGITALLNVSSDCPNHFEGHYQYKCIPVEDNHKADISSWFMEAIEYIDAVKDCRGRVLVHSQAGISRSATICLAYLMMKKRVRLEEAFEFVKQRRSIISPNFSFMGQLLQFESQVLTTSCAAEAASPSGPLRERGKATPTPTSQFVFSFPVSVGVHAAPSNLPYLHSPITTSPSC

Variants of: B1
Assay: co-IP (anti-Flag IP, IB DUSP4) with band intensity quantification
Conditions: HEK-293T cells co-transfected for 24 hr, parent: 3.76e+04

Variant	response (band intensity (arbitrary units))
chain 1 Y694F	43700
chain 1 Y694E	44800
chain 1 Y694D	48300
